Source: article PMC12069617 (Nature Communications, 2024)

Key:
[1] = molecular target: histone acetyltransferase p300, full-length, Strep II-tagged (human, UniProt Q09472 1-2414); assay: cross-linking
[2] = molecular target: the molecule itself; assay: SEC-MALS

histone acetyltransferase p300, full-length, Strep II-tagged, sequence (Q09472 whole entry): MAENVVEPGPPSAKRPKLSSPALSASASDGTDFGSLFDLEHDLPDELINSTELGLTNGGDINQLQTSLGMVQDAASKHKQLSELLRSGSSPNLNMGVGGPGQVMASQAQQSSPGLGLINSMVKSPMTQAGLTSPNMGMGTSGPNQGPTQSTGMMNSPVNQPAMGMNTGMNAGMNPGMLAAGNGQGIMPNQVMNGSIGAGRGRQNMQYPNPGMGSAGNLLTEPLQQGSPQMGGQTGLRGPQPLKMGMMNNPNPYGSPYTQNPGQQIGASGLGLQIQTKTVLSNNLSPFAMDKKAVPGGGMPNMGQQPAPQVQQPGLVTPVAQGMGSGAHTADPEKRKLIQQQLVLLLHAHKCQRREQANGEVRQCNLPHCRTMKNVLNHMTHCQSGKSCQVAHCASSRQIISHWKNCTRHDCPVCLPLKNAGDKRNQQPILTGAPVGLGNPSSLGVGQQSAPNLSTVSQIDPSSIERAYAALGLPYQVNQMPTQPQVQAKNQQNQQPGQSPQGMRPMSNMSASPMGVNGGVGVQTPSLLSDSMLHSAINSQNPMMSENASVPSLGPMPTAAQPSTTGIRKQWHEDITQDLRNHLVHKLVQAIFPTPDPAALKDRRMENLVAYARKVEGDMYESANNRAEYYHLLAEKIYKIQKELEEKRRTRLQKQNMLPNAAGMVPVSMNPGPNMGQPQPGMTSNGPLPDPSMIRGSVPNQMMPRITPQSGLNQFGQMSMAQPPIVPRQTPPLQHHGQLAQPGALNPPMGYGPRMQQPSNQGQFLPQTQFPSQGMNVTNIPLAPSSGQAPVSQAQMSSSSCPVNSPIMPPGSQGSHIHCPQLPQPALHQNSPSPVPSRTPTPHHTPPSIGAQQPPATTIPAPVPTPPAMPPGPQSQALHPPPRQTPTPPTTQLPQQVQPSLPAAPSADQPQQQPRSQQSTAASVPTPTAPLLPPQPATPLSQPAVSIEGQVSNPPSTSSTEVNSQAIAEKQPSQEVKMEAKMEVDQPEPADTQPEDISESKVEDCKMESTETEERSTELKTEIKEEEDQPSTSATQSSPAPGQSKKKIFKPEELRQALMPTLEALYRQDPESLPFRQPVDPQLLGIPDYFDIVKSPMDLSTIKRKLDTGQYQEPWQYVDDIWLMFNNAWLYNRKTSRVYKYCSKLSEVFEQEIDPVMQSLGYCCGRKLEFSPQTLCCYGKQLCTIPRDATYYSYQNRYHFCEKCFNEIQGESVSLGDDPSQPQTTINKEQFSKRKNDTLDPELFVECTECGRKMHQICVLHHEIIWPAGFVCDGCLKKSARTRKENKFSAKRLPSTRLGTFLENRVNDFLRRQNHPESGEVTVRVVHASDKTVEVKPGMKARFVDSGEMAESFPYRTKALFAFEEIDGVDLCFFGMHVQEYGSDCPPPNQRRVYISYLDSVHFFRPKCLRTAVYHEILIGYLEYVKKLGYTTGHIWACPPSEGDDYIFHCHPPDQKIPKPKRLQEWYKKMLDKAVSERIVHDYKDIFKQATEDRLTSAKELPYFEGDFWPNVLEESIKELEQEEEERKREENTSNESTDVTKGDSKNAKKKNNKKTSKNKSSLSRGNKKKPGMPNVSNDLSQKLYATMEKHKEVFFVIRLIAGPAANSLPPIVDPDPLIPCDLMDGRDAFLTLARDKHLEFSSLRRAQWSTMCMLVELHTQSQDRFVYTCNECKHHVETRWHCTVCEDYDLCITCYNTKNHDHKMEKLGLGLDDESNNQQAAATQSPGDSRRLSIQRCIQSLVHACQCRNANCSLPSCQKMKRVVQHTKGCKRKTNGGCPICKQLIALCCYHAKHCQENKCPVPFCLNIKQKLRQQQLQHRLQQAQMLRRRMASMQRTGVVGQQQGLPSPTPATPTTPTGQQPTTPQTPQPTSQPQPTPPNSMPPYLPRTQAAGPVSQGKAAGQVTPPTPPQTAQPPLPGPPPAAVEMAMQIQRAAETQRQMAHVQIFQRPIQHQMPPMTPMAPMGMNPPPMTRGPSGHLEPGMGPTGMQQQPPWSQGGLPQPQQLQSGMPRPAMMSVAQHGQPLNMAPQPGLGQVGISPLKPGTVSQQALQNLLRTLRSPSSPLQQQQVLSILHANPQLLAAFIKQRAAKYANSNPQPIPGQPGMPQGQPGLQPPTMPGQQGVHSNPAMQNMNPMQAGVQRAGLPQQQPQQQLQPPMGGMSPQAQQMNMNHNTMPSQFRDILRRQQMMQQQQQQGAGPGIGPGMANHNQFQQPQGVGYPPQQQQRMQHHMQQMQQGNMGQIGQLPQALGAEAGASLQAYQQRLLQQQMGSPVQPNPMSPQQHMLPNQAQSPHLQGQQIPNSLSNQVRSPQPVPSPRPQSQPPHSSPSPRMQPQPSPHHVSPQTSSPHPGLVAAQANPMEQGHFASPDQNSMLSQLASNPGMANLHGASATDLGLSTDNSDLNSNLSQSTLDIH

B1: progesterone receptor isoform A (PR-A), full-length, Strep II-tagged (receptor)
chain: MSRSGCKVGDSSGTAAAHKVLPRGLSPARQLLLPASESPHWSGAPVKPSPQAAAVEVEEEDGSESEESAGPLLKGKPRALGGAAAGGGAAAVPPGAAAGGVALVPKEDSRFSAPRVALVEQDAPMAPGRSPLATTVMDFIHVPILPLNHALLAARTRQLLEDESYDGGAGAASAFAPPRSSPCASSTPVAVGDFPDCAYPPDAEPKDDAYPLYSDFQPPALKIKEEEEGAEASARSPRSYLVAGANPAAFPDFPLGPPPPLPPRATPSRPGEAAVTAAPASASVSSASSSGSTLECILYKAEGAPPQQGPFAPPPCKAPGASGCLLPRDGLPSTSASAAAAGAAPALYPALGLNGLPQLGYQAAVLKEGLPQVYPPYLNYLRPDSEASQSPQYSFESLPQKICLICGDEASGCHYGVLTCGSCKVFFKRAMEGQHNYLCAGRNDCIVDKIRRKNCPACRLRKCCQAGMVLGGRKFKKFNKVRVVRALDAVALPQPVGVPNESQALSQRFTFSPGQDIQLIPPLINLLMSIEPDVIYAGHDNTKPDTSSSLLTSLNQLGERQLLSVVKWSKSLPGFRNLHIDDQITLIQYSWMSLMVFGLGWRSYKHVSGQMLYFAPDLILNEQRMKESSFYSLCLTMWQIPQEFVKLQVSQEEFLCMKVLLLLNTIPLEGLRSQTQFEEMRSSYIRELIKAIGLRQKGVVSSSQRFYQLTKLLDNLHDLVKQLHLYCLNTFIQSRALSVEFPEMMSEVIAAQLPKILAGMVKPLLFHKK
modifications: phosphorylated on multiple serine residues (sites not given)
[1]
  binding result: binds

B2: progesterone receptor isoform B (PR-B), full-length, Strep II-tagged (receptor)
chain: MTELKAKGPRAPHVAGGPPSPEVGSPLLCRPAAGPFPGSQTSDTLPEVSAIPISLDGLLFPRPCQGQDPSDEKTQDQQSLSDVEGAYSRAEATRGAGGSSSSPPEKDSGLLDSVLDTLLAPSGPGQSQPSPPACEVTSSWCLFGPELPEDPPAAPATQRVLSPLMSRSGCKVGDSSGTAAAHKVLPRGLSPARQLLLPASESPHWSGAPVKPSPQAAAVEVEEEDGSESEESAGPLLKGKPRALGGAAAGGGAAAVPPGAAAGGVALVPKEDSRFSAPRVALVEQDAPMAPGRSPLATTVMDFIHVPILPLNHALLAARTRQLLEDESYDGGAGAASAFAPPRSSPCASSTPVAVGDFPDCAYPPDAEPKDDAYPLYSDFQPPALKIKEEEEGAEASARSPRSYLVAGANPAAFPDFPLGPPPPLPPRATPSRPGEAAVTAAPASASVSSASSSGSTLECILYKAEGAPPQQGPFAPPPCKAPGASGCLLPRDGLPSTSASAAAAGAAPALYPALGLNGLPQLGYQAAVLKEGLPQVYPPYLNYLRPDSEASQSPQYSFESLPQKICLICGDEASGCHYGVLTCGSCKVFFKRAMEGQHNYLCAGRNDCIVDKIRRKNCPACRLRKCCQAGMVLGGRKFKKFNKVRVVRALDAVALPQPVGVPNESQALSQRFTFSPGQDIQLIPPLINLLMSIEPDVIYAGHDNTKPDTSSSLLTSLNQLGERQLLSVVKWSKSLPGFRNLHIDDQITLIQYSWMSLMVFGLGWRSYKHVSGQMLYFAPDLILNEQRMKESSFYSLCLTMWQIPQEFVKLQVSQEEFLCMKVLLLLNTIPLEGLRSQTQFEEMRSSYIRELIKAIGLRQKGVVSSSQRFYQLTKLLDNLHDLVKQLHLYCLNTFIQSRALSVEFPEMMSEVIAAQLPKILAGMVKPLLFHKK
modifications: phosphorylated on multiple serine residues (sites not given)
[2]
  stoichiometry N: 2
[1]
  binding result: binds
